# From patent publication US20240374671A1 (ACCELERON PHARMA, published 2024)
# T1: monomeric hActRIIB (human, UniProt Q13705 25-130, limits assumed)
# T1 construct: also called ActRIIB MONOMER; ActRIIB monomer
# T1 sequence: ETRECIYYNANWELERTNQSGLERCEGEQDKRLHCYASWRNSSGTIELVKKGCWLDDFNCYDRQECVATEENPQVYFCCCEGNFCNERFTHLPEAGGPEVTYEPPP
# T2: dimeric hActRIIB (human, UniProt Q13705 25-130)
# T2 construct: also called ActRIIB DIMER; ActRIIB dimer
# T2 sequence: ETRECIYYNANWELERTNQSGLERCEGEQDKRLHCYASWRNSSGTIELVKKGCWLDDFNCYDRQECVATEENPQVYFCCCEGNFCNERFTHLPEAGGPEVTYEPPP
# Tests used:
# monomeric hActRIIB [1] = biological target: T1, monomeric hActRIIB; experiment: SPR (Biacore), 37 C
# dimeric hActRIIB [2] = biological target: T2, dimeric hActRIIB; experiment: SPR (Biacore), 37 C
# monomeric hActRIIA [3] = biological target: T3, monomeric hActRIIA (human, UniProt P27037 21-138, limits assumed); experiment: SPR (Biacore), 37 C
# T3 construct: also called ActRIIA MONOMER; ActRIIA monomer
# T3 sequence (P27037 21-138 limits assumed): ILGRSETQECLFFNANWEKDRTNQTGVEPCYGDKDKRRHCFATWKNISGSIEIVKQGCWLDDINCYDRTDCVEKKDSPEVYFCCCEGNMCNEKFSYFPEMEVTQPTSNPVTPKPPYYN
# dimeric hActRIIA [4] = biological target: T4, dimeric hActRIIA (human, UniProt P27037 21-138); experiment: SPR (Biacore), 37 C
# T4 construct: also called ActRIIA DIMER; ActRIIA dimer
# T4 sequence (P27037 21-138): as the sequence (P27037 21-138 limits assumed) above
# monomeric hActRIIA [5] = biological target: T3, monomeric hActRIIA; experiment: SPR (Biacore), 37 C, mAb captured on anti-hFc chip, receptor injected
# Description: (§1) Kinetic characterization of A01 antibody lineage (A01 (naïve parent), B01, C01, D01, E01 and F01) binding to monomeric and dimeric hActRIIB and hActRIIA was performed using standard BIACORE®-based analysis at 37° C. In brief, antibodies were captured on anti-hFcIgG Biacore chips and different concentrations of dimeric and monomeric ActRIIB or ActRIIA were injected in duplicates over the captured antibody and control surface. To obtain kinetic rate constants the data were double referenced and fit to a 1:1 interaction model using BiaEvaluation software (GE Healthcare). The equilibrium binding constant KD was determined by the ratio of binding rate constants kd/kₐ
# dimeric hActRIIA [6] = biological target: T4, dimeric hActRIIA; experiment: as above
# Description: as §1
# monomeric hActRIIB [7] = biological target: T1, monomeric hActRIIB; experiment: SPR (Biacore), 37 C, mAb captured on anti-hFc chip, receptor injected, 1:1 fit
# Description: as §1
# dimeric hActRIIB [8] = biological target: T2, dimeric hActRIIB; experiment: as above
# Description: as §1
# monomeric hActRIIA [9] = biological target: T3, monomeric hActRIIA; experiment: SPR (BIACORE), 37 C, series of concentrations (not printed on the sheet)
# Description: (§2) FIGS. 1A-1N depict kinetic characterization of A01 lineage antibodies binding to hActRIIB and hActRIIA as determined by BIACORE®-based analysis at 37° C. Monomeric or dimeric hActRIIB or hActRIIA was […]. FIGS. 1A-1D depict characterization of antibody A01 (parent) binding to ActRIIB monomer (FIG. 1A), ActRIIB dimer (FIG. 1B), ActRIIA monomer (FIG. 1C), and ActRIIA dimer (FIG. 1D). FIGS. 1E and 1F depict characterization of antibody B01 binding to ActRIIB monomer (FIG. 1E) and ActRIIB dimer (FIG. 1F). FIGS. 1G-1H depict antibody C01 binding to ActRIIB monomer (FIG. 1G) and ActRIIB dimer (FIG. 1H). FIGS. 1I-1J depict antibody D01 binding to ActRIIB monomer (FIG. 1I) and ActRIIB dimer (FIG. 1J). FIGS. 1K-1L depict antibody E01 binding to ActRIIB monomer (FIG. 1K) and ActRIIB dimer (FIG. 1L). FIGS. 1M-1N depict antibody F01 binding to ActRIIB monomer (FIG. 1M) and ActRIIB dimer (FIG. 1N).
# (§3) Kinetic characterization of A01 antibody lineage (A01 (naïve parent), B01, C01, D01, E01 and F01) binding to monomeric and dimeric hActRIIB and hActRIIA was performed using standard BIACORE®-based analysis at 37° C. […] The equilibrium binding constant KD was determined by the ratio of binding rate constants kd/kₐ
# dimeric hActRIIA [10] = biological target: T4, dimeric hActRIIA; experiment: as above
# Description: as §2, §3
Binder,Kd (monomeric hActRIIB [1]),koff (monomeric hActRIIB [1]),kon (monomeric hActRIIB [1]),Kd (dimeric hActRIIB [2]),koff (dimeric hActRIIB [2]),kon (dimeric hActRIIB [2]),Kd (dimeric hActRIIA [4]),koff (dimeric hActRIIA [4]),kon (dimeric hActRIIA [4]),binding result (monomeric hActRIIA [5]),binding result (dimeric hActRIIA [6]),Kd (monomeric hActRIIB [7]),koff (monomeric hActRIIB [7]),kon (monomeric hActRIIB [7]),Kd (dimeric hActRIIB [8]),koff (dimeric hActRIIB [8]),kon (dimeric hActRIIB [8]),other results
"D02 (antibody, human IgG1, V domains shown, Human IgG) VH: QVQLVQSGAEVKKPGASVKVSCKASGYTFTSYRMHWVRQAPGQGLEWMGFIVPSGGSTSYAQKFQGRVTMTRDTSTSTVYMELSSLRSEDTAVYYCARVSMYAPEPMDVWGQGTTVTVSS VL: DIQMTQSPSSVSASVGDRVTITCRASQGISRWLAWYQQKPGKAPKLLIYAASSLQSGVPSRFSGSGSGTDFTLTISSLQPEDFATYYCQQAFSHPWTFGGGTKVEIK",0.65 nM,0.000291 s⁻¹,447000 M⁻¹ s⁻¹,0.727 nM,0.000123 s⁻¹,170000 M⁻¹ s⁻¹,0.316 nM,0.000106 s⁻¹,336000 M⁻¹ s⁻¹,,,,,,,,,Kd (monomeric hActRIIA [3]): 18.6 nM; koff (monomeric hActRIIA [3]): 0.00684 s⁻¹; kon (monomeric hActRIIA [3]): 369000 M⁻¹ s⁻¹
"B02 (antibody, human IgG1, V domains shown, Human IgG) VH: QVQLVQSGAEVKKPGASVKVSCKASGYTFTGHKMHWVRQAPGQGLEWMGWINPASGWTNYAQKFQGRVTMTRDTSISTAYMELSRLRSDDTAVYYCARVSMYAPEPMDVWGQGTTVTVSS VL: DIQMTQSPSSVSASVGDRVTITCRASQGISRWLAWYQQKPGKAPKLLIYAASSLQSGVPSRFSGSGSGTDFTLTISSLQPEDFATYYCQQAFSHPWTFGGGTKVEIK",1.1 nM,0.001 s⁻¹,905000 M⁻¹ s⁻¹,0.649 nM,0.00021 s⁻¹,323000 M⁻¹ s⁻¹,0.338 nM,0.000167 s⁻¹,495000 M⁻¹ s⁻¹,,,,,,,,,Kd (monomeric hActRIIA [3]): 8.13 nM; koff (monomeric hActRIIA [3]): 0.00593 s⁻¹; kon (monomeric hActRIIA [3]): 729000 M⁻¹ s⁻¹
"A02 (antibody, human IgG1, V domains shown, Human IgG; also called A02 Parent) VH: QVQLVQSGAEVKKPGASVKVSCKASGYTFTSYGISWVRQAPGQGLEWMGWISPYNGNTNYAQKLQGRVTMTTDTSTSTAYMELRSLRSDDTAVYYCARVSMYAPEPMDVWGQGTTVTVSS VL: DIQMTQSPSSVSASVGDRVTITCRASQGISRWLAWYQQKPGKAPKLLIYAASSLQSGVPSRFSGSGSGTDFTLTISSLQPEDFATYYCQQAFSHPWTFGGGTKVEIK",22 nM,0.0662 s⁻¹,3.02e+06 M⁻¹ s⁻¹,0.511 nM,0.000112 s⁻¹,219000 M⁻¹ s⁻¹,1.78 nM,0.000627 s⁻¹,353000 M⁻¹ s⁻¹,,,,,,,,,
"D01 (antibody, human IgG1, kappa, V domains shown, Human IgG) VH: QVQLQESGPGLVKPSQTLSLTCTVSGGSIESGGYYWSWIRQHPGKGLEWIGGIYGSGSTYYNPSLKSRVTISVDTSKNQFSLKLSSVTAADTAVYYCARDSGIGYSYASSHGYYYYMDVWGKGTTVTVSS VL: EIVLTQSPATLSVSPGERATLSCRASQSVGSNLAWYQQKPGQAPRLLIYGASTRATGIPARFSGSGSGTEFTLTISSLQSEDFAVYYCQQYFHFPLTFGGGTKVEIKR",,,,,,,,,,no binding,no binding,2.19 nM,0.00354 s⁻¹,1.61e+06 M⁻¹ s⁻¹,0.302 nM,0.00025 s⁻¹,828000 M⁻¹ s⁻¹,
"A01 (antibody, human IgG1, kappa, V domains shown, Human IgG from yeast libraries; also called A01 Parent; A01 (naïve parent)) VH: QLQLQESGPGLVKPSETLSLTCTVSGGSISSSSYAWGWIRQPPGKGLEWIGSIYYSGSTYYNPSLKSRVTISVDTSKNQFSLKLSSVTAADTAVYYCARDSGIGYSYASSHGYYYYMDVWGKGTTVTVSS VL: EIVLTQSPATLSVSPGERATLSCRASQSVGSNLAWYQQKPGQAPRLLIYGASTRATGIPARFSGSGSGTEFTLTISSLQSEDFAVYYCQQYFHFPLTFGGGTKVEIKR",,,,,,,,,,,,1150 nM,0.198 s⁻¹,172000 M⁻¹ s⁻¹,1.21 nM,0.000128 s⁻¹,106000 M⁻¹ s⁻¹,binding result (monomeric hActRIIA [9]): no binding; binding result (dimeric hActRIIA [10]): no binding

# Continued, in another order:
Kd (monomeric hActRIIB [1]),koff (monomeric hActRIIB [1]),kon (monomeric hActRIIB [1]),Kd (dimeric hActRIIB [2]),koff (dimeric hActRIIB [2]),kon (dimeric hActRIIB [2]),Kd (dimeric hActRIIA [4]),koff (dimeric hActRIIA [4]),kon (dimeric hActRIIA [4]),binding result (monomeric hActRIIA [5]),binding result (dimeric hActRIIA [6]),Kd (monomeric hActRIIB [7]),koff (monomeric hActRIIB [7]),kon (monomeric hActRIIB [7]),Kd (dimeric hActRIIB [8]),koff (dimeric hActRIIB [8]),kon (dimeric hActRIIB [8]),Binder,other results
0.194 nM,0.000203 s⁻¹,1.05e+06 M⁻¹ s⁻¹,0.0226 nM,1.04e-05 s⁻¹,459000 M⁻¹ s⁻¹,,,,,,,,,,,,"D03 (antibody, human IgG1, Human IgG) heavy: not shown light: DIQMTQSPSSVSASVGDRVTITCRASQGISRWLAWYQQKPGKAPKLLIYAASSLQSGVPSRFSGSGSGTDFTLTISSLQPEDFATYYCQQAFSHPWTFGGGTKVEIK",
0.528 nM,0.000515 s⁻¹,975000 M⁻¹ s⁻¹,0.333 nM,9.64e-05 s⁻¹,289000 M⁻¹ s⁻¹,0.153 nM,8.02e-05 s⁻¹,524000 M⁻¹ s⁻¹,,,,,,,,,"C02 (antibody, human IgG1, V domains shown, Human IgG) VH: QVQLVQSGAEVKKPGASVKVSCKASGYTFTSYNMAWVRQAPGQGLEWMGIIRPSVGSTSYAQKFQGRVTMTRDTSTSTVYMELSSLRSEDTAVYYCARVSMYAPEPMDVWGQGTTVTVSS VL: DIQMTQSPSSVSASVGDRVTITCRASQGISRWLAWYQQKPGKAPKLLIYAASSLQSGVPSRFSGSGSGTDFTLTISSLQPEDFATYYCQQAFSHPWTFGGGTKVEIK",Kd (monomeric hActRIIA [3]): 26.4 nM
,,,,,,,,,no binding,no binding,3.64 nM,0.0034 s⁻¹,1.09e+06 M⁻¹ s⁻¹,0.393 nM,0.000246 s⁻¹,626000 M⁻¹ s⁻¹,"B01 (antibody, V domains shown, Human IgG) VH: QVQLQESGPGLVKPSQTLSLTCTVSGGSILSGGYYWSWIRQHPGKGLEWIGGIYYSGKTYYNPSLKSRVTISVDTSKNQFSLKLSSVTAADTAVYYCARDSGIGYSYASSHGYYYYMDVWGKGTTVTVSS VL: EIVLTQSPATLSVSPGERATLSCRASQSVGSNLAWYQQKPGQAPRLLIYGASTRATGIPARFSGSGSGTEFTLTISSLQSEDFAVYYCQQYFHFPLTFGGGTKVEIK",
,,,,,,,,,no binding,no binding,2.45 nM,0.00415 s⁻¹,1.7e+06 M⁻¹ s⁻¹,0.376 nM,0.000292 s⁻¹,777000 M⁻¹ s⁻¹,"E01 (antibody, human IgG1, kappa, V domains shown, Human IgG) VH: QVQLQESGPGLVKPSQTLSLTCTVSGGSIGSGGYYWSWIRQHPGKGLEWIGGIYGSGSTYYNPSLKSRVTISVDTSKNQFSLKLSSVTAADTAVYYCARDSGIGYSYASSHGYYYYMDVWGKGTTVTVSS VL: EIVLTQSPATLSVSPGERATLSCRASQSVGSNLAWYQQKPGQAPRLLIYGASTRATGIPARFSGSGSGTEFTLTISSLQSEDFAVYYCQQYFHFPLTFGGGTKVEIKR",
,,,,,,,,,no binding,no binding,3.32 nM,0.00444 s⁻¹,1.34e+06 M⁻¹ s⁻¹,0.36 nM,0.000216 s⁻¹,601000 M⁻¹ s⁻¹,"F01 (antibody, human IgG1, kappa, V domains shown, Human IgG) VH: QVQLQESGPGLVKPSQTLSLTCTVSGGSIKSGGYYWSWIRQHPGKGLEWIGGIYPSGSTYYNPSLKSRVTISVDTSKNQFSLKLSSVTAADTAVYYCARDSGIGYSYASSHGYYYYMDVWGKGTTVTVSS VL: EIVLTQSPATLSVSPGERATLSCRASQSVGSNLAWYQQKPGQAPRLLIYGASTRATGIPARFSGSGSGTEFTLTISSLQSEDFAVYYCQQYFHFPLTFGGGTKVEIKR",
,,,,,,,,,no binding,no binding,5.22 nM,0.00712 s⁻¹,1.37e+06 M⁻¹ s⁻¹,0.236 nM,0.000188 s⁻¹,797000 M⁻¹ s⁻¹,"C01 (antibody, human IgG1, kappa, V domains shown, Human IgG) VH: QVQLQESGPGLVKPSQTLSLTCTVSGGSISSGGYFWSWIRQHPGKGLEWIGGIYYSGRTYYNPSLKSRVTISVDTSKNQFSLKLSSVTAADTAVYYCARDSGIGYSYASSHGYYYYMDVWGKGTTVTVSS VL: EIVLTQSPATLSVSPGERATLSCRASQSVGSNLAWYQQKPGQAPRLLIYGASTRATGIPARFSGSGSGTEFTLTISSLQSEDFAVYYCQQYFHFPLTFGGGTKVEIKR",
